Results on 1 molecule are retold here after patent US20110076272A1, “THERAPEUTIC METHODS AND COMPOSITIONS” (priority 2009, published 2011).

This test concerns MDA-MB-435 established primary tumors. The test can be described thus: MDA-MB-435 established primary tumor xenograft model. Also noted: reduction in activated TAFs assessed by aSMA signal / reduction in VEGF signal versus vehicle-treated tumors / reduction in SDF-1/CXCL12 signal / reduction in LOXL2 signal: concentration or dose not given beside the values. The test is classed as in vivo, mouse. Here is the method: To provide growing tumor tissue stock for subsequent orthotopic implantation, five- to six-week-old nude mice (NCr nu/nu) were injected subcutaneously with 2×10^6 MDA-MB-435-GFP cells (Anticancer, Inc., San Diego, Calif.) on the right flank. For this purpose, cultures of MDA-MB-435-GFP cells were harvested and dissociated by trypsinization, washed three times with cold serum-containing medium, and then kept on ice until injection. Cells were injected into the subcutaneous space of the flank of the animal in a total volume of 0.1 ml, within 30 min of harvesting. The nude mice were sacrificed to harvest tumor tissue 4 to 6 weeks after tumor cell injection for surgical orthotopic implantation (SOI) of tumor fragments.
Tumor pieces (˜1 mm^3), extracted from subcutaneously-growing GFP-expressing breast tumors, were implanted by surgical orthotopic implantation (SOI) on the breast of female nude mice (NCr nu/nu). Treatments with AB0023 (anti-LOXL2 monoclonal antibody), M64 (anti-LOX monoclonal antibody) and vehicle (all via intraperitoneal injection) and with Taxotere (by intravenous injection) were initiated when the average primary tumor volume reached 75 mm^3. Mice were administered the antibodies at a dose of 30 mg/kg twice a week for 28 days and Taxotere, at 10 mg/kg, was administered once a week for 3 weeks.
Body weight and tumor size were recorded weekly. At the conclusion of the study, mice were sacrificed by cervical dislocation after being anesthetized with carbon dioxide. Primary breast tumors were imaged, harvested, cut in half symmetrically and snap-frozen for histological and immunohistochemical analyses.
The solutions used for the immunohistochemistry (IHC) protocols were obtained from Biocare Medical (Concord, Calif.) unless otherwise stated. All procedures were performed at room temperature. Slides were fixed with 4% PFA for 10 minutes and were subsequently treated with Peroxidazed-1 (Biocare Medical, Concord, Calif.) for 5 minutes. Then, the slides were background blocked with SNIPER (Biocare Medical, Concord, Calif.) for 10 minutes. Primary antibody (2-5 ug/ml final concentration) was diluted in Da Vinci Green Universal Diluent and applied to slides for 30 minutes. Slides were then rinsed in PBS-Tween-20. The Mach2 polymer kit was used for antigen detection by adding rabbit probe for 30 minutes. DAB chromagen was added to the slides for 3-5 minutes, then slides were rinsed once with deionized water. The slides were then counter-stained with hematoxylin, followed by dehydration with graded alcohol. The slides were mounted with entellan mounting medium (Electron Microscopy Sciences, Hatfield, Pa.).

Setting [1] is: antibodies 30 mg/kg i.p. twice a week.
[2] abbreviates: tissue-based ELISA, fibroblasts and tumor cells.

B1: AB0023: mouse anti-human LOXL2 monoclonal antibody; heavy chain variable region SEQ ID NO:1, light chain variable region SEQ ID NO:2 (antibody, listed as Mus musculus, V domains shown)
VH: MEWSRVFIFLLSVTAGVHSQVQLQQSGAELVRPGTSVKVSCKASGYAFTYYLIEWVKQRPGQGLEWIGVINPGSGGTNYNEKFKGKATLTADKSSSTAYMQLSSLTSDDSAVYFCARNWMNFDYWGQGTTLTVSS
VL: MRCLAEFLGLLVLWIPGAIGDIVMTQAAPSVSVTPGESVSISCRSSKSLLHSNGNTYLYWFLQRPGQSPQFLIYRMSNLASGVPDRFSGSGSGTAFTLRISRVEAEDVGVYYCMQHLEYPYTFGGGTKLEIK
modifications: Heavy chain; Light chain
For the molecule B1, the “abundance of fibroblasts in tumors versus vehicle” value (H&E staining and other markers) is reported as “less abundant overall”. For the same molecule, the necrosis in tumors result (H&E, TNF-α IHC) is listed as “significant regions of necrosis”. Also, for the setting “IHC of tumors”, the “reduction in LOXL2 signal” value is on record as 55%, the “reduction in SDF-1/CXCL12 signal” value came to 80% and the “reduction in VEGF signal versus vehicle-treated tumors” value stood at 76%. Under setting [1], the “decrease in tumor volume at week 3” value was determined as 45% and the “decrease in tumor volume at week 5” value is reported as 33%. Besides, under “mouse, in vivo”, the “levels of Beclin-1 (autophagy) in tumor cells” value is recorded as “increased”; the “pyknosis, reduced viability of tumor cells” value is “pyknosis and increased cytoplasmic condensation of nuclei”. Also, under setting [2], the “levels of TGF-β1” value was “reduced” and the “levels of phosphorylated SMAD2” value is “reduced”. Besides, under “tumor tissue”, the “levels of connective tissue growth factor (CTGF)” value was “reduced”. Under “tumors harvested at day 39”, the “reduction in Sirius red staining (crosslinked collagen, desmoplasia)” value is 61%; the “reduction in activated TAFs assessed by aSMA signal” value turned out to be 88%; the “reduction in tumor vasculature, CD31 signal” value came out at 74%.
